In ChEMBL document CHEMBL1150442, “Synthesis and creatine kinase inhibitory activity of non-hydrolyzable analogs of phosphocreatine” (Bioorg Med Chem Lett, 1997):

Tested on: CN(CC(=O)O)C(=N)NP(=O)(O)O
Test: Compound was tested for inhibition against Creatine kinase(CK)
Settings: Oryctolagus cuniculus

Sequence of Creatine kinase M-type (Homo sapiens), P06732 (P06732 whole entry): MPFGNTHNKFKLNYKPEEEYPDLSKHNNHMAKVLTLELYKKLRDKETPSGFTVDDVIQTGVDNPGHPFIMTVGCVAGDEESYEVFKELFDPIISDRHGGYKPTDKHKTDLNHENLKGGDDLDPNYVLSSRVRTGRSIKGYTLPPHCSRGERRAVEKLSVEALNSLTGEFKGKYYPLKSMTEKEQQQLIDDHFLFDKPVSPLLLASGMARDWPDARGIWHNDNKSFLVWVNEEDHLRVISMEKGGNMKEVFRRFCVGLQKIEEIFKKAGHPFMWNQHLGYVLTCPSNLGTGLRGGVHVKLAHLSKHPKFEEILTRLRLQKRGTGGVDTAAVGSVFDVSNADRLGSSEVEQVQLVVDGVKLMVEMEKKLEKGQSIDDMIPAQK

Creatine kinase M-type (Homo sapiens), P06732
Km: 2500 µM
